Test results taken from the supplement of paper PMC9112550, “Optimization of the antimicrobial peptide Bac7 by deep mutational scanning” (BMC Biology, 2022).

Test system: Escherichia coli TOP10
Test: shrunken log2 fold change of peptide-encoding DNA abundance (4.5 h post-induction vs induction); higher = less antimicrobial activity (less host growth inhibition)
Conditions: time post-induction: 4.5 h; library: site-saturation at positions 5, 18, 19, 20
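Further: peptides expressed intracellularly from a pBAD plasmid library in pooled LB shake-flask culture, induced with 0.3% L-arabinose, DNA abundance read by NGS, three biological replicates, DESeq2 with apeglm shrinkage.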

Sequence	shrunken log2 fold change
RRIRYRPPRLPRPRPRPHECPRP	0.0244
RRIRPRPPRLPRPRPRPVHLPRP	0.179
RRIRGRPPRLPRPRPRPKRSPRP	0.301
RRIRERPPRLPRPRPRPFCMPRP	-0.126
RRIRCRPPRLPRPRPRPNLYPRP	-0.347
RRIRTRPPRLPRPRPRPIEEPRP	0.0678
RRIRFRPPRLPRPRPRPDTFPRP	-0.144
RRIRQRPPRLPRPRPRPEAPPRP	0.6
RRIRMRPPRLPRPRPRPMMFPRP	0.251
RRIRKRPPRLPRPRPRPDESPRP	0.0701
RRIRTRPPRLPRPRPRPGWSPRP	0.354
RRIRFRPPRLPRPRPRPMPIPRP	0.0193
RRIRNRPPRLPRPRPRPFTKPRP	-0.0763
RRIRWRPPRLPRPRPRPTWIPRP	0.0497
RRIRCRPPRLPRPRPRPVTDPRP	0.133
RRIRNRPPRLPRPRPRPWWAPRP	-0.0446
RRIRHRPPRLPRPRPRPTKIPRP	-0.316
RRIRCRPPRLPRPRPRPLSGPRP	-0.0515
RRIRDRPPRLPRPRPRPKSQPRP	0.231
RRIRRRPPRLPRPRPRPRAGPRP	0.638
RRIRFRPPRLPRPRPRPQNCPRP	-0.195
RRIRRRPPRLPRPRPRPNIPPRP	-0.24
RRIRFRPPRLPRPRPRPQIMPRP	-0.736

Sequence	shrunken log2 fold change
RRIRQRPPRLPRPRPRPDQPPRP	-0.0438
RRIRNRPPRLPRPRPRPMKNPRP	-0.238
RRIRIRPPRLPRPRPRPYSMPRP	-0.436
RRIRSRPPRLPRPRPRPPHPPRP	0.325
RRIRVRPPRLPRPRPRPQTNPRP	-0.0562
RRIRERPPRLPRPRPRPVNEPRP	-0.224
RRIRCRPPRLPRPRPRPWCHPRP	-0.463
RRIRGRPPRLPRPRPRPCTYPRP	0.00971
RRIRTRPPRLPRPRPRPLAMPRP	0.128
RRIRGRPPRLPRPRPRPWKKPRP	-0.00973
RRIRFRPPRLPRPRPRPKAPPRP	0.453
RRIRRRPPRLPRPRPRPSFCPRP	-0.00369
RRIRRRPPRLPRPRPRPKTQPRP	0.273
RRIRYRPPRLPRPRPRPMPTPRP	0.0288
RRIRNRPPRLPRPRPRPEQAPRP	0.632
RRIRVRPPRLPRPRPRPDDNPRP	-0.0966
RRIRLRPPRLPRPRPRPLHIPRP	-0.367
RRIRARPPRLPRPRPRPYTHPRP	-0.373
RRIRKRPPRLPRPRPRPAMKPRP	0.141
RRIRNRPPRLPRPRPRPCCGPRP	-0.148
RRIRKRPPRLPRPRPRPAIPPRP	0.000942
RRIRFRPPRLPRPRPRPMMFPRP	0.126
RRIRGRPPRLPRPRPRPMQYPRP	-0.21

Sequence	shrunken log2 fold change
RRIRIRPPRLPRPRPRPGYPPRP	-0.173
RRIRQRPPRLPRPRPRPEIPPRP	-0.0704
RRIRQRPPRLPRPRPRPNQVPRP	-0.0722
RRIRARPPRLPRPRPRPGCAPRP	0.947
RRIRYRPPRLPRPRPRPPMQPRP	-0.0424
RRIRNRPPRLPRPRPRPWMTPRP	-0.189
RRIRKRPPRLPRPRPRPNPHPRP	0.188
RRIRDRPPRLPRPRPRPMSDPRP	1.13
RRIRWRPPRLPRPRPRPGVAPRP	0.821
RRIRLRPPRLPRPRPRPYQLPRP	-0.253
RRIRTRPPRLPRPRPRPLPTPRP	0.368
RRIRPRPPRLPRPRPRPLNNPRP	-0.541
RRIRNRPPRLPRPRPRPNGAPRP	-0.0902
RRIRHRPPRLPRPRPRPYHFPRP	-0.686
RRIRTRPPRLPRPRPRPETHPRP	0.179
RRIRVRPPRLPRPRPRPMWCPRP	-0.139
RRIRGRPPRLPRPRPRPWTLPRP	0.161
RRIRARPPRLPRPRPRPPVQPRP	0.227
RRIRPRPPRLPRPRPRPLISPRP	-0.17
RRIRLRPPRLPRPRPRPTGFPRP	-0.158
RRIRSRPPRLPRPRPRPAFVPRP	0.577
RRIRVRPPRLPRPRPRPYYEPRP	-0.632
RRIRHRPPRLPRPRPRPDSKPRP	-0.362

Sequence	shrunken log2 fold change
RRIRHRPPRLPRPRPRPPDYPRP	4.26
RRIRQRPPRLPRPRPRPPDSPRP	0.377
RRIRHRPPRLPRPRPRPLNCPRP	-0.134
RRIRGRPPRLPRPRPRPLDCPRP	0.141
RRIRTRPPRLPRPRPRPEAYPRP	-0.12
RRIRLRPPRLPRPRPRPVPMPRP	-0.0969
RRIRPRPPRLPRPRPRPKRLPRP	0.285
RRIRWRPPRLPRPRPRPRQNPRP	0.448
RRIRGRPPRLPRPRPRPRDNPRP	0.0439
RRIRCRPPRLPRPRPRPCESPRP	-0.0611
RRIRRRPPRLPRPRPRPVACPRP	0.41
RRIRCRPPRLPRPRPRPYCPPRP	-0.968
RRIRFRPPRLPRPRPRPPMHPRP	0.162
RRIRTRPPRLPRPRPRPITTPRP	-0.438
RRIRERPPRLPRPRPRPHQYPRP	-0.00989
RRIRPRPPRLPRPRPRPHTYPRP	-0.942
RRIRIRPPRLPRPRPRPFVVPRP	-0.235
RRIRRRPPRLPRPRPRPDMIPRP	-0.0332
RRIRYRPPRLPRPRPRPGLHPRP	-0.265
RRIRFRPPRLPRPRPRPQNEPRP	-0.603
RRIRLRPPRLPRPRPRPKHPPRP	-0.09
RRIRERPPRLPRPRPRPQLVPRP	0.0441
